Legend:
human CCR8 (human) [1] = biological target: human CCR8 (human) (UniProt P51685); test: flow cytometry on lymphocytes from ovarian cancer ascites, 0.5 µg antibody
human CCR8 (human) [2] = biological target: human CCR8 (human) (UniProt P51685); test: flow cytometry on lymphocytes from ovarian cancer ascites, 1 µg antibody
human CCR8 (human) [3] = biological target: human CCR8 (human) (UniProt P51685); test: flow cytometry on lymphocytes from ovarian cancer ascites, 0.1 µg antibody
human CCR8 (human) [4] = biological target: human CCR8 (human) (UniProt P51685); test: cell-based or functional assay
human CCR8 (human) [5] = biological target: human CCR8 (human) (UniProt P51685); test: flow cytometry, hCCR8-transfected CHO-K1 cells

Row | Positive cells (human CCR8 (human) [1]) [%] | Positive cells (human CCR8 (human) [2]) [%] | Positive cells (human CCR8 (human) [3]) [%] | EC80 of hCCL1, hCCR8 Gi2 BRET, HEK-293 in suspension (human CCR8 (human) [4]) [nM] | EC80 of hCCL1, hCCR8 Gi2 BRET, adherent HEK-293 (protocol #4) (human CCR8 (human) [4]) [nM] | % positive cells (human CCR8 (human) [5]) [%] | MFI fold change to isotype ctrl (human CCR8 (human) [5]) [fold] | Substance
1 | 3.81 | 5.06 | 2.94 | – | – | – | – | Isotype ctrl (antibody)
2 | – | – | – | 6 | 0.6 | – | – | human CCL1 (from UniProt P22362 24-96) (ligand)
3 | 9.86 | 8.64 | 9.5 | – | – | 86.5 | 19.8 | murine anti-human CCR8 monoclonal antibody L263G8

Reference: patent publication US20260132208A1
